Assay results: PMC4585835, “A novel stearic acid-modified hirudin peptidomimetic with improved pharmacokinetic properties and anticoagulant activity” (Scientific Reports, 2015)

Molecular target: Rat thrombin (rat)
Assay: enzyme inhibition kinetics (thrombin-catalysed hydrolysis of Chromozym TH)

Hirulog-1 (peptide)
Ki: 20.5 nM
